Paper PMC10754087

Target: Yeast Hsp90 wildtype construct without the coiled-coil motif and without cysteine mutation (yeast) (UniProt P02829)
Assay: neutron spin echo spectroscopy; Hsp90 wildtype at 50 mg mL^-1 (614 µM) in D2O buffer with 150 mM KCl, 10 mM MgCl2, 295 K; effective diffusion compared with rigid-body models of dimer and hexamer

stoichiometry N: 6
Substance: Yeast Hsp90 wildtype construct without the coiled-coil motif and without cysteine mutation, P02829 1-709 (natural protein; other documents disagree on this pair)
